From the RNAGym collection of RNA variant scans (doi:10.7554/elife.80360)

B1: Hairpin Ribozyme (parent)
chain: GUCCUCUUUCACGUGCGCGUGAAAGAGAGAAGUGAACCAGAGAAACACACGUUGUGGUAUAUUACCUGGUA

Variants of: B1
Assay: self-cleavage, relative activity (ratio to wild type); higher = more cleavage; co-transcriptional

Variant | self-cleavage
C4U C18U | 0.514
U9A A47U | 0.135
C18G A44G | 0.113
C10G A44C | 0.126
A31G C37U | 0.349
U55G U70C | 0.264
U52C A64U | 0.331
C37A C65A | 0.259
G21A A45C | 0.16
G15C G57U | 0.282
U60G C65A | 0.453
A30C A31G | 0.141
C18U U58A | 0.657
A44G U70A | 0
A44G G57U | 0.022
G40U C46U | 0.106
A35C A36G | 0.683
A30C A41U | 0.364
U53C U55G | 0.306
A36C G56U | 0.216
U53G A64G | 0.599
G17A A26U | 0.768
G32A C50U | 0.101
A31G G68U | 0.113

Variant | self-cleavage
U7C U9G | 0.35
G27A G51A | 0.337
G1C A22G | 0.255
C4G U67G | 0.182
A49G C66G | 0.192
G57A A64U | 0.119
C4U U7G | 0.235
G51U U53G | 0.707
A31U G34C | 0
U62C U67C | 0.121
G34U U55C | 1.36
U8A U9G | 0.791
G13C C16A | 0.597
G32C G42A | 0.156
U60C U70A | 1.29
G13U U58G | 0.645
U2A A47G | 0.102
A36U U67A | 0.235
A39G U67C | 0.544
A31C A41U | 0.109
A41C A47C | 0.468
C6U A47G | 0.107
G13C U53C | 0.535
U2A A36G | 0.194

Variant | self-cleavage
C3G A45G | 0.118
C66G A71C | 0.35
A31C C38U | 0.131
C38U G51A | 0.786
A59G C65U | 0.18
U9G A41U | 1.15
G42C C65G | 0.117
U7A A47G | 0.0992
C6A A23G | 0.387
A22G A59G | 0.212
U20C G25C | 0.513
U2G G57U | 0.209
A23U A26U | 0.606
G1A C10A | 0.175
U5A U58C | 0.615
A24C C66G | 0.0731
A11G U53A | 0.945
U5C G25U | 0.28
G40U U58C | 0.278
A49U C66U | 0.102
C3U C46G | 0.179
G1C G29C | 0.203
U20C C37U | 0.756
G13A A24C | 0.76

Variant | self-cleavage
G29A U55C | 0.163
A36C C66G | 0.131
U33C A41G | 0.193
U8G A26G | 0.673
G21U G25C | 0.342
G25C A45U | 0.205
G25C G40A | 0.0978
U20G A43U | 0.189
A11G A44G | 0.0822
G25A U62A | 0.121
C3A A39U | 0.252
U60C A64G | 0.614
G42A G54C | 0.168
C3G U58A | 0.0819
G29U G57C | 0.108
U5C G40C | 0.0912
U7A C65A | 0.876
U5C C65U | 0.24
U63C U70C | 0.19
C6G | 0.521
C46A G57A | 0.177
U2C U7G | 0.105
G32A G40A | 0.136
C4G G42U | 0.121

Variant | self-cleavage
C46A U67C | 0.11
C38U G68U | 0.605
C38G A39C | 0.146
G32C C66U | 0.04
C10U G34C | 1.02
A31U G54A | 0.151
U2A G69C | 0.111
G13C A49C | 0.115
G1U A11U | 0.201
C18A A28G | 1.43
U5A A45C | 0.161
U8A A11C | 0.393
A23G G29U | 0.164
U9C U58C | 0.747
U9A C65G | 0.203
U9A C50G | 0.214
U5A C37U | 0.291
A45U U53G | 0.263
C65A C66U | 0.508
U60G A64U | 0.202
A24U A31C | 0.163
U20G G69C | 0.284
A61U G69A | 0.145
G27A G34C | 0.945

Variant | self-cleavage
U5C A35G | 0.358
G15C G51C | 1.23
C18G A39U | 0.474
G21C G27U | 0.2
A45C A47G | 0.0534
A30U C37G | 0.0899
C3U A35U | 0.339
A47G C65A | 0.0744
U20G A61U | 0.142
A36U U55G | 0.163
G13A G25C | 0.36
C3A A71C | 1.11
A41U U63G | 0.223
G34U A49C | 0.433
C12A G68A | 0.262
U33C A36U | 0.0847
A43U G54U | 0.129
G13C G56C | 0.17
C12U A22C | 0.831
U5C A28C | 0.139
C48G U70G | 0.0256
A31G G57C | 0.121
C12U A71U | 0.656
A22C G29U | 0.131

Variant | self-cleavage
G29U A49U | 0.0858
U55G A59C | 0.156
U33A U70C | 0.119
C3U G57U | 0.204
A24G G69A | 0.392
A43C U63G | 0.117
U14G A71G | 0.883
G19U U58A | 0.607
U9G C16G | 0.431
U2G A47G | 0.0815
U5G C46G | 0.243
A24G A36G | 0.679
A36G U52C | 1.24
U5G A44G | 0.177
C4G U70A | 0.161
C4G U70G | 0.219
C6G U60G | 0.31
G29C A41C | 0.0573
G29U G68C | 0.137
C37A C46G | 0.0923
C48G A49C | 0.223
G15U C46G | 0.167
G29C U52C | 0.163
